Test results from the supplement of paper PMC10724198.

What was measured:
[1] = tested on: Saccharomyces cerevisiae; assay: protein stability index of tFT-peptide fusion in wild type (PSI (0-1 scale)); higher = more stable (slower turnover); conditions: genetic background: wild type
Procedure: (§1)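 MPS profiling in S. cerevisiae of two library types built from selected 12-aa C-degron peptides (IN1, IN2, LN1, LN3, VN2, R1-R5, W1-W3, Atg1 and Rpa12 C-termini): saturation mutagenesis libraries and C-terminal +1 capping libraries (13 aa). Each peptide is fused to the C-terminus of a sfGFP-mCherry timer, after a GGGS linker. Cells are FACS-sorted into 8 mCherry/sfGFP bins and sequenced. PSI runs from 0 (unstable) to 1 (stable), measured once in wild type and in the das1Δ or doa10Δ background.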

[2] = tested on: Saccharomyces cerevisiae; assay: protein stability index of tFT-peptide fusion in deletion strain of DAS1 (PSI (0-1 scale)); higher = more stable (slower turnover)
Procedure: as §1
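Wherever protein stability index of tFT-peptide fusion in deletion strain of DAS1 is given: PSI is a weighted mean of each variant's read distribution over the sorted stability bins, computed only for variants having over 10 reads in total.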
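Wherever protein stability index of tFT-peptide fusion in wild type is given: PSI derived as read-weighted mean over the 8 sorting bins, only variants exceeding 10 total reads kept, mCherry placed adjacent to the peptide and sfGFP distal.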

ARWRVGLWRGQS
protein stability index [1]: 0.416
protein stability index [2]: 0.695

LVVYLSVVACIN
protein stability index [1]: 0.0255
protein stability index [2]: 0.0878

KKWKKGQKQKIN
protein stability index [1]: 0.0754
protein stability index [2]: 0.561

FSMRWTFRYWPN
protein stability index [1]: 0.525
protein stability index [2]: 0.528

PLLAASFWRVVG
protein stability index [1]: 0.157
protein stability index [2]: 0.678

FSFRWTFRYWVN
protein stability index [1]: 0.089
protein stability index [2]: 0.54

LKISRQKMNHQN
protein stability index [1]: 0.323
protein stability index [2]: 0.677

ARWRVGQWRGAS
protein stability index [1]: 0.614
protein stability index [2]: 0.682

PDKRNHLYKLLN
protein stability index [1]: 0.196
protein stability index [2]: 0.598

RLIQPLPVQPLN
protein stability index [1]: 0.587
protein stability index [2]: 0.579

FRWRVGLWRGAS
protein stability index [1]: 0.0957
protein stability index [2]: 0.668

ARSRVGLWRGAS
protein stability index [1]: 0.591
protein stability index [2]: 0.698

LKILRNKMNHQN
protein stability index [1]: 0.269
protein stability index [2]: 0.703

KKHKLGQKQKIN
protein stability index [1]: 0.0725
protein stability index [2]: 0.58

PSLAASFWRVVT
protein stability index [1]: 0.147
protein stability index [2]: 0.693

LKILRQKTNHQN
protein stability index [1]: 0.403
protein stability index [2]: 0.69

FYMRWTFRYWVN
protein stability index [1]: 0.044
protein stability index [2]: 0.351

LKILRQAMNHQN
protein stability index [1]: 0.23
protein stability index [2]: 0.658

VIGAVGGWRLVG
protein stability index [1]: 0.115
protein stability index [2]: 0.689

PKLAASFWRVVG
protein stability index [1]: 0.172
protein stability index [2]: 0.691

FSMRWTFLYWVN
protein stability index [1]: 0.0672
protein stability index [2]: 0.383

CTSCAYKFRTNN
protein stability index [1]: 0.172
protein stability index [2]: 0.665

RLWQPLPVQFLN
protein stability index [1]: 0.069
protein stability index [2]: 0.608

ARWRVGLWRGFS
protein stability index [1]: 0.599
protein stability index [2]: 0.678

KKHKKGQTQKIN
protein stability index [1]: 0.0981
protein stability index [2]: 0.591

ATSCGYKFRTNN
protein stability index [1]: 0.235
protein stability index [2]: 0.671

RLISPLPVQFLN
protein stability index [1]: 0.0608
protein stability index [2]: 0.622

FSMRWTFNYWVN
protein stability index [1]: 0.0909
protein stability index [2]: 0.719

CTYCGYKFRTNN
protein stability index [1]: 0.269
protein stability index [2]: 0.705

PSLIASFWRVVG
protein stability index [1]: 0.12
protein stability index [2]: 0.672

LVEYLSCVACIN
protein stability index [1]: 0.247
protein stability index [2]: 0.373

LKILRQKMNHQE
protein stability index [1]: 0.507
protein stability index [2]: 0.675

CTSCGWKFRTNN
protein stability index [1]: 0.306
protein stability index [2]: 0.673

PSKRNHLIKLLN
protein stability index [1]: 0.145
protein stability index [2]: 0.61

ARWDVGLWRGAS
protein stability index [1]: 0.543
protein stability index [2]: 0.729

PSLAASFWNVVG
protein stability index [1]: 0.331
protein stability index [2]: 0.69

LKRLRQKMNHQN
protein stability index [1]: 0.202
protein stability index [2]: 0.666

CTSCGYKFRTSN
protein stability index [1]: 0.273
protein stability index [2]: 0.704

KKHKKGQKQKINM
protein stability index [1]: 0.638
protein stability index [2]: 0.662

CTSPGYKFRTNN
protein stability index [1]: 0.254
protein stability index [2]: 0.686

PSLAASFWRVVM
protein stability index [1]: 0.282
protein stability index [2]: 0.743

ARWRVGLWRLAS
protein stability index [1]: 0.0888
protein stability index [2]: 0.672

RLIQPLPVQFLE
protein stability index [1]: 0.633
protein stability index [2]: 0.743

ARKRVGLWRGAS
protein stability index [1]: 0.517
protein stability index [2]: 0.691

ARDRVGLWRGAS
protein stability index [1]: 0.575
protein stability index [2]: 0.716

PDKRNHLIKLLNG
protein stability index [1]: 0.17
protein stability index [2]: 0.662

VRDAVGGWRLVG
protein stability index [1]: 0.172
protein stability index [2]: 0.654

PDKRNHLIHLLN
protein stability index [1]: 0.0992
protein stability index [2]: 0.586

PDKLNHLIKLLN
protein stability index [1]: 0.133
protein stability index [2]: 0.609
